Patent US20200148784A1 (AGILVAX, published 2020)

T1: human-xCT ECD3 peptide (human)
T1 construct: Coated at 1 µg/mL
T1 peptide: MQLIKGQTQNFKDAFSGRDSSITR

B1: 11D1/H10 subclone A1 (antibody)
heavy: QVQLQQSGAELVRPGASVKLSCKALGYTFTDYEMHWVKQTPVHGLEWIGAIHPGSGGTAYNQKFKGKATLTADKSSSTAYMELSSLTSEDSAVYYCTRPLYYRYPYYFDYWGQGTTLTVSSESQSFPNVFPLVSCESPLSDKNLVAMGCLARDFLPSTISFTWNYQNNTEVIQGIRTFPTLRTGGKYLATSQVLLSPKSILEGSDEYLVCKIHYGGKNRDLHVPIPAVAEMNPNVNVFVPPRDGFSGPAPRKSKLICEATNFTPKPITVSWLKDGKLVESGFTTDPVTIENKGSTPQTYKVISTLTISEIDWLNLNVYTCRVDHRGLTFLKNVSSTCAASPSTDILTFTIPPSFADIFLSKSANLTCLVSNLATYETLNISWASQSGEPLETKIKIMESHPNGTFSAKGVASVCVEDWNNRKEFVCTVTHRDLPSPQKKFISKPNEVHKHPPAVYLLPPAREQLNLRESATVTCLVKGFSPADISVQWLQRGQLLPQEKYVTSAPMPEPGAPGFYFTHSILTVTEEEWNSGETYTCVVGHEALPHLVTERTVDKSTGKPTLYNVSLIMSDTGGTCY
light: QIVLTQSPAIMSASPGEKVTISCSASSSVSYMYWYQQKPGSSPKPWIYRTSNLASGVPARFSGSGSGTSYSLTISSMEAEDAATYYCQQYHSYPLTFGAGTKLELKRADAAPTVSIFPPSSEQLTSGGASVVCFLNNFYPKDINVKWKIDGSERQNGVLNSWTDQDSKDSTYSMSSTLTLTKDEYERHNSYTCEATHKTSTSPIVKSFNRNEC
B2: 11D1/H10 subclone E1 (antibody)
heavy: QVQLQQSGAELVRPGASVKLSCKALGYTFTDYEMHWVKQTPVHGLEWIGAIHPGSGGTAYNQKFKGKATLTADKSSSTAYMELSSLTSEDSAVYYCTRPLYYRYPYYFDYWGQGTTLTVSSESQSFPNVFPLVSCESPLSDKNLVAMGCLARDFLPSTISFTWNYQNNTEVIQGIRTFPTLRTGGKYLATSQVLLSPKSILEGSDEYLVCKIHYGGKNRDLHVPIPAVAEMNPNVNVFVPPRDGFSGPAPRKSKLICEATNFTPKPITVSWLKDGKLVESGFTTDPVTIENKGSTPQTYKVISTLTISEIDWLNLNVYTCRVDHRGLTFLKNVSSTCAASPSTDILTFTIPPSFADIFLSKSANLTCLVSNLATYETLNISWASQSGEPLETKIKIMESHPNGTFSAKGVASVCVEDWNNRKEFVCTVTHRDLPSPQKKFISKPNEVHKHPPAVYLLPPAREQLNLRESATVTCLVKGFSPADISVQWLQRGQLLPQEKYVTSAPMPEPGAPGFYFTHSILTVTEEEWNSGETYTCVVGHEALPHLVTERTVDKSTGKPTLYNVSLIMSDTGGTCY
light: QIVLTQSPAIMSASPGEKVTISCSASSSVSYMYWYQQKPGSSPKPWIYRTSNLASGVPARFSGSGSGTSYSLTISSMEAEDAATYYCQQYHSYPLTFGAGTKLELKRADAAPTVSIFPPSSEQLTSGGASVVCFLNNFYPKDINVKWKIDGSERQNGVLNSWTDQDSKDSTYSMSSTLTLTKDEYERHNSYTCEATHKTSTSPIVKSFNRNEC
notes: IgM kappa
B3: 11D1/H10 subclone B9 (antibody)
heavy: QVQLQQSGAELVRPGASVKLSCKALGYTFTDYEMHWVKQTPVHGLEWIGAIHPGSGGTAYNQKFKGKATLTADKSSSTAYMELSSLTSEDSAVYYCTRPLYYRYPYYFDYWGQGTTLTVSSESQSFPNVFPLVSCESPLSDKNLVAMGCLARDFLPSTISFTWNYQNNTEVIQGIRTFPTLRTGGKYLATSQVLLSPKSILEGSDEYLVCKIHYGGKNRDLHVPIPAVAEMNPNVNVFVPPRDGFSGPAPRKSKLICEATNFTPKPITVSWLKDGKLVESGFTTDPVTIENKGSTPQTYKVISTLTISEIDWLNLNVYTCRVDHRGLTFLKNVSSTCAASPSTDILTFTIPPSFADIFLSKSANLTCLVSNLATYETLNISWASQSGEPLETKIKIMESHPNGTFSAKGVASVCVEDWNNRKEFVCTVTHRDLPSPQKKFISKPNEVHKHPPAVYLLPPAREQLNLRESATVTCLVKGFSPADISVQWLQRGQLLPQEKYVTSAPMPEPGAPGFYFTHSILTVTEEEWNSGETYTCVVGHEALPHLVTERTVDKSTGKPTLYNVSLIMSDTGGTCY
light: QIVLTQSPAIMSASPGEKVTISCSASSSVSYMYWYQQKPGSSPKPWIYRTSNLASGVPARFSGSGSGTSYSLTISSMEAEDAATYYCQQYHSYPLTFGAGTKLELKRADAAPTVSIFPPSSEQLTSGGASVVCFLNNFYPKDINVKWKIDGSERQNGVLNSWTDQDSKDSTYSMSSTLTLTKDEYERHNSYTCEATHKTSTSPIVKSFNRNEC
notes: IgM kappa
B4: 11D1/H10 subclone D5 (antibody)
heavy: QVQLQQSGAELVRPGASVKLSCKALGYTFTDYEMHWVKQTPVHGLEWIGAIHPGSGGTAYNQKFKGKATLTADKSSSTAYMELSSLTSEDSAVYYCTRPLYYRYPYYFDYWGQGTTLTVSSESQSFPNVFPLVSCESPLSDKNLVAMGCLARDFLPSTISFTWNYQNNTEVIQGIRTFPTLRTGGKYLATSQVLLSPKSILEGSDEYLVCKIHYGGKNRDLHVPIPAVAEMNPNVNVFVPPRDGFSGPAPRKSKLICEATNFTPKPITVSWLKDGKLVESGFTTDPVTIENKGSTPQTYKVISTLTISEIDWLNLNVYTCRVDHRGLTFLKNVSSTCAASPSTDILTFTIPPSFADIFLSKSANLTCLVSNLATYETLNISWASQSGEPLETKIKIMESHPNGTFSAKGVASVCVEDWNNRKEFVCTVTHRDLPSPQKKFISKPNEVHKHPPAVYLLPPAREQLNLRESATVTCLVKGFSPADISVQWLQRGQLLPQEKYVTSAPMPEPGAPGFYFTHSILTVTEEEWNSGETYTCVVGHEALPHLVTERTVDKSTGKPTLYNVSLIMSDTGGTCY
light: QIVLTQSPAIMSASPGEKVTISCSASSSVSYMYWYQQKPGSSPKPWIYRTSNLASGVPARFSGSGSGTSYSLTISSMEAEDAATYYCQQYHSYPLTFGAGTKLELKRADAAPTVSIFPPSSEQLTSGGASVVCFLNNFYPKDINVKWKIDGSERQNGVLNSWTDQDSKDSTYSMSSTLTLTKDEYERHNSYTCEATHKTSTSPIVKSFNRNEC
notes: IgM kappa
B5: 11D1/H10 subclone A5 (antibody)
heavy: QVQLQQSGAELVRPGASVKLSCKALGYTFTDYEMHWVKQTPVHGLEWIGAIHPGSGGTAYNQKFKGKATLTADKSSSTAYMELSSLTSEDSAVYYCTRPLYYRYPYYFDYWGQGTTLTVSSESQSFPNVFPLVSCESPLSDKNLVAMGCLARDFLPSTISFTWNYQNNTEVIQGIRTFPTLRTGGKYLATSQVLLSPKSILEGSDEYLVCKIHYGGKNRDLHVPIPAVAEMNPNVNVFVPPRDGFSGPAPRKSKLICEATNFTPKPITVSWLKDGKLVESGFTTDPVTIENKGSTPQTYKVISTLTISEIDWLNLNVYTCRVDHRGLTFLKNVSSTCAASPSTDILTFTIPPSFADIFLSKSANLTCLVSNLATYETLNISWASQSGEPLETKIKIMESHPNGTFSAKGVASVCVEDWNNRKEFVCTVTHRDLPSPQKKFISKPNEVHKHPPAVYLLPPAREQLNLRESATVTCLVKGFSPADISVQWLQRGQLLPQEKYVTSAPMPEPGAPGFYFTHSILTVTEEEWNSGETYTCVVGHEALPHLVTERTVDKSTGKPTLYNVSLIMSDTGGTCY
light: QIVLTQSPAIMSASPGEKVTISCSASSSVSYMYWYQQKPGSSPKPWIYRTSNLASGVPARFSGSGSGTSYSLTISSMEAEDAATYYCQQYHSYPLTFGAGTKLELKRADAAPTVSIFPPSSEQLTSGGASVVCFLNNFYPKDINVKWKIDGSERQNGVLNSWTDQDSKDSTYSMSSTLTLTKDEYERHNSYTCEATHKTSTSPIVKSFNRNEC
notes: IgM kappa

Target: T1, human-xCT ECD3 peptide
Assay: ELISA of subclone supernatant against xCT

| Binder | ELISA O.D. 450 |
| --- | --- |
| B1 | ≥ 0.4 |
| B2 | ≥ 0.4 |
| B3 | ≥ 0.4 |
| B4 | ≥ 0.4 |
| B5 | ≥ 0.4 |
